Experiments:
[1] = target: human serum albumin immobilized on Sepharose (human) (UniProt P02768); assay: 125I-hLF retained on HSA-Sepharose, +0.2% Tween-20
[2] = target: human serum albumin immobilized on Sepharose (human) (UniProt P02768); assay: 125I-hLF retained on HSA-Sepharose, +0.2% Tween-20 +2 M NaCl
[3] = target: human serum albumin immobilized on Sepharose (human) (UniProt P02768); assay: 125I-hLF retained on HSA-Sepharose, +0.2% Tween-20 +0.5 M NaCl
[4] = target: human serum albumin immobilized on Sepharose (human) (UniProt P02768); assay: 125I-hLF retained on HSA-Sepharose, +0.2% Tween-20 +0.25 M NaCl
[5] = target: human serum albumin immobilized on Sepharose (human) (UniProt P02768); assay: 125I-hLF retained on HSA-Sepharose, +0.2% Tween-20 +0.1% Polybrene
[6] = target: human serum albumin immobilized on Sepharose (human) (UniProt P02768); assay: 125I-hLF retained on HSA-Sepharose, 10 mM sodium phosphate, 0.15M NaCl, pH 7.4, no addition
[7] = target: caseins (casein fraction of whole bovine milk); assay: co-sedimentation of bLF with the casein pellet of whole cow milk (centrifugation only, no addition), bLF read by competitive inhibition RIA

| Substance | percentage binding [1] | percentage binding [2] | percentage binding [3] | percentage binding [4] | percentage binding [5] | percentage binding [6] | % of total bLF found in casein fraction [7] |
| --- | --- | --- | --- | --- | --- | --- | --- |
| 125I-labelled human lactoferrin (from UniProt P02788) | 9% | 4% | 3% | 4% | 4% | 8% | – |
| bovine lactoferrin (from UniProt P24627) | – | – | – | – | – | – | 21% |

From patent US5861491
